Laboratory results published in patent US20200277374A1 (Alector, published 2020).

Key:
R124A [1] = biological target: T1, R124A (human, UniProt Q9Y286); assay: flow cytometry on HEK-293T cells expressing the mutant, mock signal subtracted
T1 construct: clone of the siglec-7 mutation library; also called Siglec-7 R124A
Description: (§1) Shotgun mutagenesis epitope mapping of anti-siglec-7 antibodies was performed using an alanine-scanning library for the siglec-7 protein. […] Each of residues 19 to 353 was mutated, representing the siglec-7 extracellular domain, most to alanine, while alanine codons were mutated to serine. In total, 335 siglec-7 mutant expression constructs were generated, sequences confirmed, and arrayed into a 384-well plate, one mutant per well.
Cells were then incubated with MAbs diluted in 10% o normal goat serum (NGS) (Sigma-Aldrich, St. Louis, Mo.). Prior to library screening, primary MAb concentrations were determined using an independent immunofluorescence titration curve against cells expressing wild-type siglec-7 to ensure that signals were within the linear range of detection. MAbs were detected using 3.75 μg/ml AlexaFluor488-conjugated secondary antibody (Jackson immunoResearch Laboratories, Westgrove, Pa.) in 10% NGS. […] Mean cellular fluorescence was detected using the Intellicyt high throughput flow cytometer (HTFC, Intellicyt, Albuquerque, N. Mex.). MAb reactivities against each mutant clone were calculated relative to wild-type siglec-7 protein reactivity by subtracting the signal from mock-transfected controls, and normalizing to the signal from wild-type siglec-7-transfected controls.

S47A = biological target: T2, S47A (human, UniProt Q9Y286); assay: flow cytometry on HEK-293T cells expressing the mutant; mean % of wild-type signal (range of duplicates)
T2 construct: clone of the siglec-7 mutation library; also called Siglec-7 S47A
Description: as §1
(§2) Cells were then incubated with MAbs diluted in 10% o normal goat serum (NGS) (Sigma-Aldrich, St. Louis, Mo.). Prior to library screening, primary MAb concentrations were determined using an independent immunofluorescence titration curve against cells expressing wild-type siglec-7 to ensure that signals were within the linear range of detection. MAbs were detected using 3.75 μg/ml AlexaFluor488-conjugated secondary antibody (Jackson immunoResearch Laboratories, Westgrove, Pa.) in 10% NGS. Cells were washed twice with PBS−/− and resuspended in Cellstripper (Cellgro, Manassas, Va.) with 0.1% BSA (Sigma-Aldrich, St. Louis, Mo.). Mean cellular fluorescence was detected using the Intellicyt high throughput flow cytometer (HTFC, Intellicyt, Albuquerque, N. Mex.). MAb reactivities against each mutant clone were calculated relative to wild-type siglec-7 protein reactivity by subtracting the signal from mock-transfected controls, and normalizing to the signal from wild-type siglec-7-transfected controls.

R124A [2] = biological target: T1, R124A; assay: as above
Description: as §1, §2

M30A = biological target: T3, M30A (human, UniProt Q9Y286); assay: as above
T3 construct: clone of the siglec-7 mutation library; also called Siglec-7 M30A
Description: as §1, §2

Q31A = biological target: T4, Q31A (human, UniProt Q9Y286); assay: as above
T4 construct: clone of the siglec-7 mutation library; also called Siglec-7 Q31A
Description: as §1, §2

R45A = biological target: T5, R45A (human, UniProt Q9Y286); assay: as above
T5 construct: clone of the siglec-7 mutation library; also called Siglec-7 R45A
Description: as §1, §2

Y50A = biological target: T6, Y50A (human, UniProt Q9Y286); assay: as above
T6 construct: clone of the siglec-7 mutation library; also called Siglec-7 Y50A
Description: as §1, §2

T107A = biological target: T7, T107A (human, UniProt Q9Y286); assay: as above
T7 construct: clone of the siglec-7 mutation library; also called Siglec-7 T107A
Description: as §1, §2

F48A = biological target: T8, F48A (human, UniProt Q9Y286); assay: as above
T8 construct: clone of the siglec-7 mutation library; also called Siglec-7 F48A
Description: as §1, §2

K104A = biological target: T9, K104A (human, UniProt Q9Y286); assay: as above
T9 construct: clone of the siglec-7 mutation library; also called Siglec-7 K104A
Description: as §1, §2

I72A = biological target: T10, I72A (human, UniProt Q9Y286); assay: as above
T10 construct: clone of the siglec-7 mutation library; also called Siglec-7 I72A
Description: as §1, §2

W74A = biological target: T11, W74A (human, UniProt Q9Y286); assay: as above
T11 construct: clone of the siglec-7 mutation library; also called Siglec-7 W74A
Description: as §1, §2

V44A = biological target: T12, V44A (human, UniProt Q9Y286); assay: as above
T12 construct: clone of the siglec-7 mutation library; also called Siglec-7 V44A
Description: as §1, §2

N81A = biological target: T13, N81A (human, UniProt Q9Y286); assay: as above
T13 construct: clone of the siglec-7 mutation library; also called Siglec-7 N81A
Description: as §1, §2

M185A = biological target: T14, M185A (human, UniProt Q9Y286); assay: as above
T14 construct: clone of the siglec-7 mutation library; also called Siglec-7 M185A
Description: as §1, §2

[3] = biological target: T15, Histidine-tagged human Siglec-7 (NovoProtein) (human, UniProt Q9Y286 19-357, limits assumed); assay: SPR (BiaCore T200, 25 C), antibody captured on anti-mouse IgG, Siglec-7-His 5 nM, single-concentration kinetics
T15 construct: Bought protein; also called purified Siglec-7-his tagged protein; not shown: histidine tag
Description: (§3) SPR data was collected at a rate of 10 Hz at 25′ C on a BiaCore T200 instrument. Data analysis was performed using BiaCore T200 Evaluation Software, version 2.0. HBS-EP+ (100 mM HEPES, 1.5 M NaCl, 30 mM EDTA, 0.5% v/v Surfactant P20, pH 7.4) was used as running buffer and for preparing reagents.
(§4) Mouse-derived antibodies (25 nM) against Siglec-7 were captured (60 s contact time, 30 μL/min flow rate, 0 s stabilization time) on a CM5 sensor chip (GE Healthcare) immobilized with anti-mouse IgG. Histidine-tagged human Siglec-7 (NovoProtein) was then flowed over the captured anti-Siglec-7 surface (120 s contact time, 30 μL/min flow rate, 300 s dissociation time). Concentration of antigen ranged from 5 nM to 100 nM, depending on information obtained from an initial screen. Duplicate single-concentration trials were performed and bracketed by a blank (0 nM antigen) sample. The chip surface was regenerated in between cycles using 10 mM glycine-HCl, pH1.7 (60 s contact time, 30 μL/min flow rate, 60 s stabilization time). The resulting SPR signal was obtained as the difference in response from measurements performed on a blank flow cell.
(§5) Affinity constants (KD) were calculated from the ratio kd/kₐ. For one antibody (clone 1E8), we validated the single-concentration analysis with a multiple-concentration approach (five concentrations of antigen used, plus one blank).

[4] = biological target: T16, human Siglec-7 expressed on human cells (primary monocytes, dendritic cells, macrophages, NK cells, … (human, UniProt Q9Y286 19-467)); assay: FACS, human primary dendritic cells, 10 ug/ml mAb
T16 construct: Endogenous receptor on cells; also called Siglec-7 receptor

[5] = biological target: T16, human Siglec-7 expressed on human cells …; assay: FACS, human primary monocytes, 10 ug/ml mAb
[6] = biological target: T17, Siglec-7-Fc (plate immobilized) (human, UniProt Q9Y286 19-357, limits assumed); assay: RBC solid adhesion assay, plate-coated Siglec-7-Fc, antibody 0.5 or 1.0 ug/ml; % of RBC binding without antibody
T17 construct: also called Siglec-7-Fc protein; immobilized Siglec-7; not shown: Fc part
In short: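 Plates coated overnight at RT with 5 μg/ml Siglec-7-Fc and blocked in PBS with BSA and 1 mM CaCl₂. Antibody (0.5 or 1.0 μg/ml) bound 1 h at RT, then RBCs (3.0×10⁶ cells/ml) added for 1 h at RT. Bound RBCs lysed and detected by peroxidase at 450 nm, expressed as % of binding without antibody.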

[7] = biological target: T16, human Siglec-7 expressed on human cells …; assay: cell-based or functional assay
[8] = biological target: T15, Histidine-tagged human Siglec-7 …; assay: SPR (Biacore T200), antibody captured on anti-mouse IgG, 5 nM Siglec-7-his flowed over, single-concentration 1:1 fit, 25 C
Description: as §3, §4, §5

[9] = biological target: T16, human Siglec-7 expressed on human cells …; assay: cell-based or functional assay; remark: listed apart in the source
[10] = biological target: T16, human Siglec-7 expressed on human cells …; assay: FACS, human primary macrophages, 10 ug/ml mAb
[11] = biological target: T15, Histidine-tagged human Siglec-7 …; assay: SPR (BiaCore T200, 25 C), antibody captured on anti-mouse IgG, Siglec-7-His 50 nM, single-concentration kinetics
Description: as §3, §4, §5

T16 sequence (Q9Y286 19-467): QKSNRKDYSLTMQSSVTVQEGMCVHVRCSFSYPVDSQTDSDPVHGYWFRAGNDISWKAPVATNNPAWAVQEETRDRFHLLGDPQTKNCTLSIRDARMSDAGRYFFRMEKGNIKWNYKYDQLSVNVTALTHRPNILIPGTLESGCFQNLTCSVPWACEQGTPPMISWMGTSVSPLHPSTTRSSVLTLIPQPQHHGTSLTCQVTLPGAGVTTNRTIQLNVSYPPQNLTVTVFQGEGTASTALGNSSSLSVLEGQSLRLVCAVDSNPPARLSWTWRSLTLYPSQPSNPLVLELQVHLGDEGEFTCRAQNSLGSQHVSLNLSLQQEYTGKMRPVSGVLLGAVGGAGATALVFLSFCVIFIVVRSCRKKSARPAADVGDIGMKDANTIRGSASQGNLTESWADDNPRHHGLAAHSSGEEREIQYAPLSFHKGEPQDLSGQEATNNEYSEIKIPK
T15 sequence (Q9Y286 19-357 limits assumed): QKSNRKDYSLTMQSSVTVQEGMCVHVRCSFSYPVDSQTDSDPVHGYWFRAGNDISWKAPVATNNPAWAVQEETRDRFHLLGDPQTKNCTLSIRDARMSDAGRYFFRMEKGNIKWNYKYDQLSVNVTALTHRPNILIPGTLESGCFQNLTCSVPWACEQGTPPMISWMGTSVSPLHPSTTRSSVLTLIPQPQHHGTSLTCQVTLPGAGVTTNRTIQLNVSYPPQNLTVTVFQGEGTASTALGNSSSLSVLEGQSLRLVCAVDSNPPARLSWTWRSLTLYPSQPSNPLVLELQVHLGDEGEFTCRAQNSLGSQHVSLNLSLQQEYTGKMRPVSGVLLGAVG
T1 sequence (Q9Y286 19-467 R124A limits assumed): as the sequence (Q9Y286 19-467) above, with R106A counted along it
T17 sequence (Q9Y286 19-357 limits assumed): as the sequence (Q9Y286 19-357 limits assumed) above
T7 sequence (Q9Y286 19-467 T107A limits assumed): as the sequence (Q9Y286 19-467) above, with T89A counted along it
T10 sequence (Q9Y286 19-467 I72A limits assumed): as the sequence (Q9Y286 19-467) above, with I54A counted along it
T11 sequence (Q9Y286 19-467 W74A limits assumed): as the sequence (Q9Y286 19-467) above, with W56A counted along it
T12 sequence (Q9Y286 19-467 V44A limits assumed): as the sequence (Q9Y286 19-467) above, with V26A counted along it
T14 sequence (Q9Y286 19-467 M185A limits assumed): as the sequence (Q9Y286 19-467) above, with M167A counted along it
T5 sequence (Q9Y286 19-467 R45A limits assumed): as the sequence (Q9Y286 19-467) above, with R27A counted along it
T3 sequence (Q9Y286 19-467 M30A limits assumed): as the sequence (Q9Y286 19-467) above, with M12A counted along it
T2 sequence (Q9Y286 19-467 S47A limits assumed): as the sequence (Q9Y286 19-467) above, with S29A counted along it
T8 sequence (Q9Y286 19-467 F48A limits assumed): as the sequence (Q9Y286 19-467) above, with F30A counted along it
T6 sequence (Q9Y286 19-467 Y50A limits assumed): as the sequence (Q9Y286 19-467) above, with Y32A counted along it
T9 sequence (Q9Y286 19-467 K104A limits assumed): as the sequence (Q9Y286 19-467) above, with K86A counted along it
T4 sequence (Q9Y286 19-467 Q31A limits assumed): as the sequence (Q9Y286 19-467) above, with Q13A counted along it
T13 sequence (Q9Y286 19-467 N81A limits assumed): as the sequence (Q9Y286 19-467) above, with N63A counted along it

B1: 4E3 Fab (Fab, V domains shown)
VH: EVQLVESGGALVKPGGSLKISCAVSGFIFSNYDMSWVRQNPEKRLEWVATISSGGGYTYYPDSVKGRFTISRDNAKNALYLQMSSLRSEDTALYYCTRHGYGNYDWYFDVWGAGATVTVSS
VL: QIVLTQSPAILSASPGEKVTMTCSANSSFTYMYWYQQKPGSSPRLLIFDTSNLASGVPIRFSGSGSGTSYSLTISRMEAEDTATYYCQQWSSSPLTFGAGTKLELK
- binding result (R124A [1]): no binding
- Binding Reactivity (% WT) (S47A): 103 % WT
- Binding Reactivity (% WT) (R124A [2]): 1 % WT
- Binding Reactivity (% WT) (M30A): 123 % WT
- Binding Reactivity (% WT) (Q31A): 112 % WT
- Binding Reactivity (% WT) (R45A): 129 % WT
- Binding Reactivity (% WT) (Y50A): 139 % WT
- Binding Reactivity (% WT) (T107A): 124 % WT
- Binding Reactivity (% WT) (F48A): 146 % WT
- Binding Reactivity (% WT) (K104A): 115 % WT
- Binding Reactivity (% WT) (I72A): 26.5 % WT
- Binding Reactivity (% WT) (W74A): 25.7 % WT
- Binding Reactivity (% WT) (V44A): 115 % WT
- Binding Reactivity (% WT) (N81A): 22 % WT
- Binding Reactivity (% WT) (M185A): 91.6 % WT

B2: anti-Siglec-7 antibody 1E8 (antibody, V domains shown)
VH: QVQLQQSGAELVRPGASVKLSCSASGFNIKGSLLHWIKQRPLQGLEWIGWIDPEDGETRFDPKFQDKAFLTADTSSTTAYLQLSSLTSEDTAIYYCARTEYSNPAWFAYWGQGTLVTVSA
VL: DIQMTQFPATLSVTPGDRVSLSCRASQSISDYLHWYQHKSHESPRLLIKYASQSISGIPSRFSGSGSGWDFTLSINSVEPEDVGIYYCQKGLNFPLTFGGGTKLEMK
- Kd [3]: 0.017 nM
- % Positive [4]: 99.7%
- MFI [4]: 2940
- % Positive [5]: 99.3%
- MFI [5]: 428
- Percent RBC Binding to Siglec-7 [6]: 16.4%
- Percent Siglec-7 Surface Expression, DCs [7]: 23%
- Percent Siglec-7 Surface Expression, Monocytes [7]: 36.7%
- Percent Siglec-7 Surface Expression, U937 cells [7]: 114%
- Kd [8]: 0.017 nM
- Percent Siglec-7 Surface Expression, Macrophages [9]: 9.1%
- Percent Siglec-7 Surface Expression, Microglia [9]: 41.3%
- Percent Siglec-7 Surface Expression, NK cells [9]: 144%
- % Positive [10]: 99.5%
- MFI [10]: 5450

B3: anti-Siglec-7 antibody 2G4 (antibody, V domains shown)
VH: QVQLQQSGSELRSPGSSVKLSCKDFDSEVFPITYMNWVRQKPGHGFEWIGDILPSIGRTMYGEKFEDKATLDADTVSNTAYLELNSLTSEDSAIYYCARSEGYLLAYWGQGTLVTVSA
VL: DIQMTQSLSYLSVSLGGRVTITCKASDHINNWLAWYQQKPGNAPRLLISGATSLETGFPSRFSGSGSGKDYTLSITSLQTEDVATYYCHQYWNTPYTFGGGTRLEIK
notes: Variable domains assembled from FR and CDR entries
- % Positive [4]: 99.7%
- MFI [4]: 5750
- % Positive [5]: 99.3%
- MFI [5]: 512
- Percent RBC Binding to Siglec-7 [6]: 11.6%
- Kd [11]: 0.4 nM
- Percent Siglec-7 Surface Expression, DCs [7]: 98.1%
- Percent Siglec-7 Surface Expression, Monocytes [7]: 29.3%
- Percent Siglec-7 Surface Expression, U937 cells [7]: 84.6%
- Percent Siglec-7 Surface Expression, Macrophages [9]: 14.1%
- Percent Siglec-7 Surface Expression, Microglia [9]: 23%
- Percent Siglec-7 Surface Expression, NK cells [9]: 126%
- % Positive [10]: 99.5%
- MFI [10]: 15500
